# B1: HPV1a E7 CR3 (residues 39-93) (domain or fragment)
# chain: LVSPQQPYAVVASCAYCEKLVRLTVLADHSAIRQLEELLLRSLNIVCPLCTLQRQ
# B2: HPV16 E7 CR3 (residues 45-98) (domain or fragment)
# chain: AEPDRAHYNIVTFCCKCDSTLRLCVQSTHVDIRTLEDLLMGTLGIVCPICSQKP
# B3: human PTPN21 PTP domain (residues 873-1174), PTP_(PTPN21) (domain or fragment)
# chain: EVATRATNDERCKILEQRLEQGMVFTEYERILKKRLVDGECSTARLPENAERNRFQDVLPYDDVRVELVPTKENNTGYINASHIKVSVSGIEWDYIATQGPLQNTCQDFWQMVWEQGIAIIAMVTAEEEGGREKSFRYWPRLGSRHNTVTYGRFKITTRFRTDSGCYATTGLKMKHLLTGQERTVWHLQYTDWPEHGCPEDLKGFLSYLEEIQSVRRHTNSTSDPQSPNPPLLVHCSAGVGRTGVVILSEIMIACLEHNEVLDIPRVLDMLRQQRMMLVQTLCQYTFVYRVLIQFLKSSRLI
# B4: HPV11 E7 CR3 (residues 45-98) (domain or fragment)
# chain: AQPLTQHYQILTCCCGCDSNVRLVVECTDGDIRQLQDLLLGTLNIVCPICAPKP
# B5: HPV18 E7 conserved region 3 (residues 54-105), CR3_(18E7) (domain or fragment)
# chain: AEPQRHTMLCMCCKCEARIKLVVESSADDLRAFQQLFLNTLSFVCPWCASQQ
# How the values were obtained:
# SEC-MALS = target: the molecule itself; test: SEC-MALS
# [1] = target: B5; test: SEC-MALS
# [2] = target: B2; test: SEC-MALS
# [3] = target: B1; test: SEC-MALS
# [4] = target: B4; test: SEC-MALS
# [5] = target: B5; test: SAXS
# [6] = target: T1, human PTPN14 PTP domain (residues 886-1187), PTP_(PTPN14) (human, UniProt Q15678 886-1187); test: SAXS
# T1 sequence: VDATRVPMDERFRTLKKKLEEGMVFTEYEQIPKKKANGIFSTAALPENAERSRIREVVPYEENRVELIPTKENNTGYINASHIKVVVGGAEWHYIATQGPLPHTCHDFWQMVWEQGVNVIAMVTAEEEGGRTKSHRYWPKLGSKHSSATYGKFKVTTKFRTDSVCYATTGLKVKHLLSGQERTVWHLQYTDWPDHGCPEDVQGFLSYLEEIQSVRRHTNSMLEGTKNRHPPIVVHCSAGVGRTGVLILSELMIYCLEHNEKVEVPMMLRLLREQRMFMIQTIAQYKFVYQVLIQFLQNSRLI
# [7] = target: B3; test: ITC
binder,measurement,setting,value
B1,stoichiometry N,SEC-MALS,2
B2,stoichiometry N,SEC-MALS,2
B3,stoichiometry N,[1],1 PTP_(PTPN21) per E7 CR3 chain (2:2)
same,stoichiometry N,[2],1 PTP_(PTPN21) per E7 CR3 chain (2:2)
same,stoichiometry N,[3],1 PTP_(PTPN21) per E7 CR3 chain (2:2)
same,stoichiometry N,[4],1 PTP_(PTPN21) per E7 CR3 chain (2:2)
same,stoichiometry N,[5],1 PTP_(PTPN21) per CR3_(18E7) chain (2:2)
B4,stoichiometry N,SEC-MALS,2
B5,stoichiometry N,SEC-MALS,2
same,binding result,[6],binds
same,Kd,[7],5.43 nM

# From PMC7854179 (Molecules and Cells, 2021)
